The source of these data is paper PMC3089569 (The Journal of Biological Chemistry, 2011).

This assay addresses N-terminal histidine-tagged full-length mouse eIF4AI (mouse, UniProt P60843 1-406). The assay is described as follows: SPR.

Sequence of N-terminal histidine-tagged full-length mouse eIF4AI (P60843 whole entry): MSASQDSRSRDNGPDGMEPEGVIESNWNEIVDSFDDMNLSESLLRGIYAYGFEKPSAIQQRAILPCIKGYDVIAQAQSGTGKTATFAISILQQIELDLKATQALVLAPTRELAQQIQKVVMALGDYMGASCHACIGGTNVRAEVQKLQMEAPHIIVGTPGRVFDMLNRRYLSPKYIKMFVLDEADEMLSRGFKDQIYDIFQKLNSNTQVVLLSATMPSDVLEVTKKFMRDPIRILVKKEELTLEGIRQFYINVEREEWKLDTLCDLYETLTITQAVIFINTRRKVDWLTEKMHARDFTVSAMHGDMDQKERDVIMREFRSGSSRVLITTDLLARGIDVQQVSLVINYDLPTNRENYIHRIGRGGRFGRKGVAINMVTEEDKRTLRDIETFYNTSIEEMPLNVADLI

B1: GST-MA-3M-C fusion protein (tandem MA-3 region of mouse Pdcd4, residues 157-449) (domain or fragment, UniProt Q61823 157-449, looked up)
chain: LPLDETAFEKTLTPIIQEYFEHGDTNEVAEMLRDLNLGEMKSGVPVLAVSLALEGKASHREMTSKLLSDLCGTVMSTNDVEKSFDKLLKDLPELALDTPRAPQLVGQFIARAVGDGILCNTYIDSYKGTVDCVQARAALDKATVLLSMSKGGKRKDSVWGSGGGQQPVNHLVKEIDMLLKEYLLSGDISEAEHCLKELEVPHFHHELVYEAIVMVLESTGESAFKMILDLLKSLWKSSTITIDQMKRGYERIYNEIPDINLDVPHSYSVLERFVEECFQAGIISKQLRDLCPS
The molecule B1 yielded a Kd of 167 nM.
